Earlier results in PMC11858487.

Target: EGFR (Homo sapiens) (UniProt P00533)

In the case of [99mTc]Tc-SYPIPDT-ECG-TAMRA, the Kd is given as 0.0765 µM.
